Test results taken from patent publication US20100092974A1, “METHODS FOR SCREENING FOR MODULATORS OF CCRL2” (The Board of Trustees of the Leland Stanford Junior …, priority 2008, published 2010).

Tests used:
mCRTH2 = target: T1, mCRTH2 (Mus musculus, UniProt Q9Z2J6); test: immunofluorescence-based chemerin-binding assay, mCRTH2-HA L1.2; settings: 10 nM His8-tagged chemerin, anti-His6 PE
T1 construct: The coding regions of mCCRL2, huCCRL2, mCRTH2, and huCCR10 were amplified from genomic DNA; expressed in transfected cells
T1 sequence (Q9Z2J6 1-382): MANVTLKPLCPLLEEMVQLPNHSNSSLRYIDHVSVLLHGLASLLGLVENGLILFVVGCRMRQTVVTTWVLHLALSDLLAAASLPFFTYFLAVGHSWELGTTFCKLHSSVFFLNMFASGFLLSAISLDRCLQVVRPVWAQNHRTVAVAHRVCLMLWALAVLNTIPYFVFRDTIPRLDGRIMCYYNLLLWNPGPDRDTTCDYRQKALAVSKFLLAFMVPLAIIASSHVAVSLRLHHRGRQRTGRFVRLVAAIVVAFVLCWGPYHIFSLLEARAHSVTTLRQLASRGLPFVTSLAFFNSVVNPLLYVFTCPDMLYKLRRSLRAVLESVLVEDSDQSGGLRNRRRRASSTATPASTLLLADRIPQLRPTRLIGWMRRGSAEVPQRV

mCCRL2 [1] = target: T2, mCCRL2 (Mus musculus, UniProt O35457); test: receptor internalization assay, mCCRL2-HA L1.2; format: cell-based; settings: 100 nM chemerin, 15 min
T2 construct: The coding regions of mCCRL2, huCCRL2, mCRTH2, and huCCR10 were amplified from genomic DNA; expressed in transfected cells
T2 sequence (O35457 1-360): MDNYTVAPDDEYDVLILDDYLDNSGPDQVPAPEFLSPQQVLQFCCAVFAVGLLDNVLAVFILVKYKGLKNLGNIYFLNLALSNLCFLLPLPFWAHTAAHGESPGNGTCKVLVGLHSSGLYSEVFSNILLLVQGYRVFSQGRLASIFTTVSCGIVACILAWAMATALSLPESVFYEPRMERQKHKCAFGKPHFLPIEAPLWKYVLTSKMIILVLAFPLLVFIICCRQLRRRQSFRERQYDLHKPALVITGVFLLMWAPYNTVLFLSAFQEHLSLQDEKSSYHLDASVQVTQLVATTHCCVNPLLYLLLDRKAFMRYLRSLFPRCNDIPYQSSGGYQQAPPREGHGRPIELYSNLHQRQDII
Procedure: (§1) The cells were then washed with 200 μl PBS and stained with mouse anti-HA (Covance, Inc) or mIgG1 isotype control, followed by staining with secondary anti-mouse IgG1 PE, fixed, and analyzed by flow cytometry.

mCMKLR1 = target: T3, mCMKLR1 (Mus musculus, UniProt P97468); test: receptor internalization assay, mCMKLR1-HA L1.2; format: cell-based; settings: 100 nM chemerin
T3 construct: expressed in transfected cells; host or cells: L1.2 mouse pre-B lymphoma cells
T3 sequence (P97468 1-371): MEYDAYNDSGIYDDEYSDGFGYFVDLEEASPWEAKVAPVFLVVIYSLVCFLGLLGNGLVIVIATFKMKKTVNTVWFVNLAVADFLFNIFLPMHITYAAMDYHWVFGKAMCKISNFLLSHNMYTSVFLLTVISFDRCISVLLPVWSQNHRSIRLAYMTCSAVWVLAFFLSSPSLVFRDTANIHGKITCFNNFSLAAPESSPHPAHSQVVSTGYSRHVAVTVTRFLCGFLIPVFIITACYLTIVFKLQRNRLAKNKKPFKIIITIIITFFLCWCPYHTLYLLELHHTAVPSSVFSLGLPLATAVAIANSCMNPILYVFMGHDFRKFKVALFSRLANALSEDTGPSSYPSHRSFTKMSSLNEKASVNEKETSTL
Procedure: as §1

mCCRL2 [2] = target: T2, mCCRL2; test: intracellular calcium mobilization, mCCRL2/L1.2 transfectants; format: cell-based; settings: Fluo-4; CXCL12 acts via endogenous CXCR4
Procedure: Chemoattractant-stimulated Ca^2+-mobilization was performed following Alliance for Cell Signaling protocol ID PP00000210. Cells (3×10^6/mL) were loaded with 4 μM Fluo4-AM and 0.16% Pluronic acid F-127 (Molecular Probes) in modified Iscove's medium (Iscove's medium with 1% heat inactivated bovine calf serum and 2 mM L-glutamine, Invitrogen) for 30 minutes at 37° C. The samples were mixed every 10 minutes during loading, washed once, resuspended at up to 2×10^6/mL in the same buffer, and allowed to rest in the dark for 30 minutes at room temperature. Chemoattractant-stimulated change in Ca^2+-sensitive fluorescence of Fluo-4 was measured over real-time with a FACsScan flow cytometer and CellQuest software (BD Biosciences) at room temperature under constant stirring (500 rpm). Fluorescent data were acquired continuously up to 1024 seconds at 1-second intervals. The samples were analyzed for 45 seconds to establish basal state, removed from the nozzle to add the stimuli, and then returned to the nozzle. Mean channel fluorescence over time was analyzed with FlowJo (TreeStar, Ashland, Oreg., USA) software. […] 500 μl of these chemerin-loaded cells were added to mCMKLR1/L1.2 cells loaded with Fluo4-AM, and calcium mobilization was evaluated.

mCCRL2 [3] = target: T2, mCCRL2; test: chemerin internalization assay, mCCRL2-HA/L1.2 cells; format: cell-based; settings: 10 nM His8-tagged serum form chemerin
Procedure: (§2) The primary cells were also stained with F4/80 and c-kit mAbs. Secondary anti-His6 PE was added to the cells and incubated for 30 minutes on ice. […] The cells were incubated for 5 minutes on ice with either PBS or acid wash buffer (0.2 M acetic acid, 0.5 M NaCl), and then analyzed by flow cytometry. Mast cells were identified by gating on SSC^high F4/80^− c-kit^+ cells.

[4] = test system: mouse peritoneal mast cells; test: chemerin internalization assay, peritoneal mast cells; format: cell-based; settings: 10 nM His8-tagged serum form chemerin
Procedure: as §2

Substance: chemerin: protein ligand for signaling receptor CMKLR1; serum form human chemerin expressed in baculovirus-infected insect cells, His8-tag removed
- chemerin binding (mCRTH2): did not bind
- ligand-induced receptor internalization (mCCRL2 [1]): failed to internalize
- time to ligand-induced receptor internalization (mCMKLR1): ≤ 15 min
- intracellular calcium mobilization (mCCRL2 [2]): failed to trigger
- acid resistant cell-associated chemerin (mCCRL2 [3]; 5 min at 37° C.): essentially no
- acid resistant cell-associated chemerin (mCCRL2 [3]; 60 min at 37° C.): very little
- chemerin internalization (acid wash) [4]: did not internalize
